Measured values as given in article PMC9213775 (iScience, 2022).

Molecular target: the molecule itself
Assay: AUC

B1: UDS1-His6 (natural protein, Aspergillus nidulans, UniProt Q5B1I5 1-941, looked up)
chain: MNGFDFRSSQSSYGDPRHFSDASYGVPQPPPTKVLLDGYRDALGPANAEKSLYNSANPTSHPRRSIPPSANDPVAMYLLTETAMGDSVNYEILSVEEVEGLKKELRVLSNRMNAAKRKLALELKLRDAAMSLSRLHHKEEHDVDGSGRNEPNTDKTNEELVHINRKCEELSMDIWYSERKVQEIQKRLLEHTAGVLQLTHKGLKKNSKNGMPHTPESLSSSNTVDDFDDRSLYKASDPLDGPETYETRAPPPDNLAHDNSMQETERKLESMSSRLRDMLLQLDPDSEFSQIPQPSTSGDSFEPSAMIDAHLRYIENGISALGSLPKADMASQSLDPVSEQQLVEMRTQLLSIMENPGLPRAQTLPTAPDPTDSDLAKHLTFLSVGINGLESRVEKLLEQKSILTTQIQQQRELNSKSDAERDAKIADLIEQLAHLRKELELAEREGQQSKEDHDLTLKELEDVRRELLESRETHSSRDLGNSKNEAQQHAEAEIARLQSVIQEIQQEKDEHCEAHRRAEAEIDRLQAVIHQIQQEKDEHREAHERAEAETTRLQTIVEEVQQEKDEQHEAHGRAVAEVTRLQDIIQKIEQEKIERHEADERAEAEIVRLRDTIREIQQEKEEHHEARVRLEGEVARLQGVIGQLQESAESRESAEQQVAQLEETIHQIRHDADIRIKEATDSRAQADAKIAQLEGAMNEVRESLESQLKEATEARNNAEENSTRLQKELTELERDVVRAQTELTMVKAELDGAYGTRAQRAAEAAADPALFHELDELKARNFEMAEELAALKAGKPGSGDVHNRVETLERELRETVDDYEAMTKASIEFEKERERFESMIDSLRDRCEQLETQLNEERISWMGANNSASSMGRDGPYETTSTMVLKNEFKKMMRDTRAENMKILKAEQEERRKLEAILRNLKREQANLSGKSNISRTVTAS
- stoichiometry N: 2
